The conditions of the series: Salmonella typhimurium (strain LT2 / SGSC1412 / ATCC 700720), pH 7.8, 25 °C, Urea, CD, Potassium phosphate 10 mM, reversible: yes, whole UniProt chain shown.

Where “and” joins values, the source holds several entries; their conditions need not be identical. Identical values can stand only once.

B1: Tryptophan synthase alpha chain wild type, P00929 (protein)
chain: MERYENLFAQLNDRREGAFVPFVTLGDPGIEQSLKIIDTLIDAGADALELGVPFSDPLADGPTIQNANLRAFAAGVTPAQCFEMLALIREKHPTIPIGLLMYANLVFNNGIDAFYARCEQVGVDSVLVADVPVEESAPFRQAALRHNIAPIFICPPNADDDLLRQVASYGRGYTYLLSRSGVTGAENRGALPLHHLIEKLKEYHAAPALQGFGISSPEQVSAAVRAGAAGAISGSAIVKIIEKNLASPKQMLAELRSFVSAMKAASRA
On to B1, for which the unfolding free energy was 13.2 kcal/mol. Besides, for the setting “transition: 3”, the denaturant m value is 2.68 kcal/mol/M and 1.6 kcal/mol/M; the “denaturant midpoint (higher = more stable)” value was 2.75 M and 3.64 M; the unfolding free energy is 7.35 kcal/mol and 5.81 kcal/mol.

Source of the values: FireProtDB (doi:10.1021/bi00123a002).
